Assay results reported in patent publication US10927178B2, “Anti-CXCR4 antibodies and antibody-drug conjugates” (PFIZER INC., priority 2013, dated 2021).
Substitutions are numbered along the chain they refer to. Names and notes keep the numbering of the source.

What was measured:
Ramos cells = experiment: Cell-death induction in Ramos cells (Annexin V/PI); assay type: cell-based, human; conditions: positive control, 24 hrs, untreated cells approximately 30%
Description: Anti-CXCR4 antibodies were examined for the ability to induce cell-death in the human Non-Hodgkin's Lymphoma Ramos cell line. Cells were cultured to sub-confluency in RPMI 1640 media containing 10% fetal bovine serum and […] Glutamine at 37° C. in a CO2 incubator. Cells were seeded in growth media in a 48-well plates at 2.5×10^6 cells/mL. Anti-CXCR4 antibodies, diluted in PBS to concentrations indicated, were added to the cells and incubated for 24 hrs at 37° C. Cell-death was measured by Annexin V-PE and propidium iodide (PI) fluorescent signal measured in a LSRII Flow Cytometer (BD Biosciences). Total cell-death was determined by adding the Annexin V+/PI+(late) population with the Annexin V+/PI-(early) population.
The Fab is a single chain antibody (monovalent) and contains the immunoglobulin variable regions which are part of the antigen-binding site and the first immunoglogulin constant region. This fragment was obtained by digestion of the 3G10 antibody with the proteolytic enzyme papain. The F(ab′)2 was generated by pepsin digestion to remove most of the Fc region while leaving intact some of the hinge region. F(ab′)2 fragments have two antigen-binding Fab portions linked together by disulfide bonds, and therefore are bivalent.

OPM-2-Luc MM cells = experiment: Systemic OPM-2-Luc multiple myeloma model; assay type: in vivo, mouse
Description: Humanized anti-CXCR4 antibody h3G10.1.91.A58B was tested for its ability to increase survival and reduce tumor burden of NSG mice using a disseminated/systemic intravenous model of MM. The human MM cancer line OPM-2 was transduced with the luciferase gene (OPM-2-LUC) to allow for “in life” monitoring of tumor burden over time. Cells were cultured at 37° C. in a 5% CO2 incubator in RPMI 1640 media containing 10% fetal bovine serum with 0.5 μg/mL puromycin for luciferase expression selection. 4-6 week old NSG female mice were injected intravenously with OPM-2-Luc cells (5×10^6/animal).
On Day 8 post-cell implantation mice were randomized into three treatment groups (10 animals per group) based on total body bioluminescence intensity. Weekly subcutaneous (s.c.) antibody treatment at 10 mg/kg in a solution of sterile PBS was initiated and carried out for 5 weeks. Melphalan, one of the approved drugs for treatment of multiple myeloma patients, was dosed at 1 mg/kg, twice/week carried out for 3 weeks. Tumor burden was assessed using Xenogen IVIS 200 imaging system. Mice were imaged every 7 days in a ventral position and whole body bioluminescence was determined using Xenogen Living Image software. When mice began to show hind limb paralysis or reached other humane endpoints they were euthanized. Both tumor burden (by bioluminescence) and survival were evaluated as endpoints.

JVM-13-Luc cells = experiment: Systemic JVM-13-Luc CLL model; assay type: in vivo, mouse; conditions: 10 mg/kg s.c. once a week
Description: Anti-tumor activity of CXCR4 antibody was further investigated in a disseminated intravenous Chronic Lymphocytic Leukemia (CLL) model. The human JVM-13 tumor cell line stably transfected to express the luciferase gene was cultured at 37° C. in a 5% CO2 incubator in RPMI 1640 media containing 10% fetal bovine serum and […] Puromycin. The model was established by injecting 1×10^6 JVM-13-Luc cells into female 6-8 week old SCID Beige mice via tail vein. 21 days post-cell implantation mice were assigned into treatment groups (10 animals per group) based on bioluminescence (BLI) reading. […] Rituximab, an anti-CD20 Ab, approved for treatment of CLL patients, was used as positive control. Rituximab was dosed at 10 mg/kg in a solution of sterile PBS once a week, s.c. Tumor burden was assessed using Xenogen IVIS 200 imaging system. Mice were imaged every 7 days in a ventral position and whole body bioluminescence was determined using Xenogen Living Image software. When mice began to show hind limb paralysis or reached other humane endpoints they were euthanized. Both tumor burden (by bioluminescence) and survival were evaluated as endpoints.

[1] = target: T1, CXCR4 (CXCR4-expressing HPB-ALL cells) (Homo sapiens, UniProt P61073); experiment: Flow cytometry binding of humanized 3G10 Fabs to HPB-ALL cells (Example 2); conditions: for MFI 0.25 μg/ml: Fab 0.25 μg/ml; for MFI 2.5 μg/ml: Fab 2.5 μg/ml
T1 construct: endogenous in cells; host or cells: HPB-ALL (human T cell leukemia)
T1 sequence (P61073 whole entry): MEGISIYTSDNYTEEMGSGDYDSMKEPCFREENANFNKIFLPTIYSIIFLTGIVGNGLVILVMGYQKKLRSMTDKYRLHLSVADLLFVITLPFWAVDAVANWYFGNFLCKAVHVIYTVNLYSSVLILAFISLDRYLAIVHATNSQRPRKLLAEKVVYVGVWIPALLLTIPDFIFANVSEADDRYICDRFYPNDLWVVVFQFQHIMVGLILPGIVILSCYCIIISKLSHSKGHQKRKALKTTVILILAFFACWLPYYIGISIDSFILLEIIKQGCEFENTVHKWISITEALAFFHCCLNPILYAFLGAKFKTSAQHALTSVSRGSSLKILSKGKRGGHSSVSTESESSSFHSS
Description: 150,000 cells were incubated with various h3G10 Fabs at either 2.5 or 0.25 μg/mL in 100 uL binding buffer (PBS+0.5% BSA), followed by incubation with APC-conjugated goat anti-human Fab-specific secondary antibody from R&D systems.

[2] = target: T2, human CXCR4-enriched lipoparticles (Homo sapiens, UniProt P61073); experiment: Biosensor affinity measurement of Fabs on CXCR4-enriched lipoparticles; assay type: binding; conditions: Fab; kinetic titration
T2 construct: purchased Integral Molecular, Philadelphia Pa; LEV101
T2 sequence (P61073 whole entry): as above
Description: One way of determining binding affinity of antibodies to CXCR4 is by measuring binding affinity of monofunctional Fab fragments of the antibody. To obtain monofunctional Fab fragments, an antibody (for example, IgG) can be cleaved with papain or expressed recombinantly. […] Biotinylated WGA can be coated on the SA chip to facilitate capturing Lipoparticles containing CXCR4 proteins. […] J. Mol. Recognit. 12, 279-284 (1999).
The concentrations of the Fab proteins are determined by ELISA and/or SDS-PAGE electrophoresis using a Fab of known concentration (as determined by amino acid analysis) as a standard. Kinetic association rates (kon) and dissociation rates (koff) are obtained simultaneously by fitting the data globally to a 1:1 Langmuir binding model (Karlsson, R. Roos, H. Fagerstam, L. Petersson, B. (1994). Methods Enzymology 6. 99-110) using the BIAevaluation program. Equilibrium dissociation constant (KD) values are calculated as koff/kon.
The binding affinity of each Fab was determined using human CXCR4-enriched lipoparticles (LEV101, Integral Molecular, Philadelphia Pa.). Biotinylated WGA (Sigma Aldrich, St. Louis Mo.)) can be coated on the SA chip to facilitate capturing lipoparticles containing CXCR4 proteins. […] J. Mol. Recognit. 12, 279-284 (1999).

[3] = NSG mice, OPM-2-Luc i.v., antibody 10 mg/kg s.c. weekly for 5 weeks, Melphalan 1 mg/kg twice/week for 3 weeks
[4] = antibody 10 mg/kg s.c. weekly 5 weeks, Melphalan 1 mg/kg twice/week 3 weeks, isotype control 33.5 days

Q: With `CN[C@@H]1C[C@H]2O[C@@](C)([C@@H]1OC)n1c3ccccc3c3c4c(c5c6ccccc6n2c5c31)C(=O)NC4` [Staurosporin, reference compound] as the molecule, how does the cell-death (Ramos cells) read?
A: Its cell-death is “approximately 60%”.

Q: How did the “median survival” value (OPM-2-Luc MM cells; [3]) turn out when `N[C@@H](Cc1ccc(N(CCCl)CCCl)cc1)C(=O)O` [Melphalan, reference compound] was run?
A: The value was 36 days.

Q: And the median survival (OPM-2-Luc MM cells; [4])?
A: Its median survival is 36 days.

Q: How did the “tumor burden (luminescence) compared to isotype control antibody” value (JVM-13-Luc cells; from 21 days post-implantation) turn out when “Rituximab: anti-CD20 Ab, approved for treatment of CLL patients, used as positive control [reference compound]” was run?
A: Its value is “significantly reduced tumor burden”.

Q: What about the median survival (JVM-13-Luc cells; isotype control 32.5 days) of the same molecule?
A: Its median survival is 45 days.

Q: And the “survival compared to isotype control Ab” value (JVM-13-Luc cells; p<0.0001)?
A: The value was “Significant increase in survival”.

B1: h3G10.1.91.A58B: humanized anti-CXCR4 antibody; VH h3G10.1.91 SEQ ID NO:33, VL h3G10.A58B SEQ ID NO:73 (antibody, V domains shown)
VH: EVQLVESGGGLVQPGGSLRLSCAASGFTFSDYYMSWVRQAPGKGLEWVGFIRHKANFETTEYSTSVKGRFTISRDDSKNSLYLQMNSLKTEDTAVYYCARDLPGFAYWGQGTLVTVSS
VL: DIVMTQSPDSLAVSLGERATINCKSSQSLFNSHTRKNYLAWYQQKPGQPPKLLIYWASARGSGVPDRFSGSGSGTDFTLTISSLQAEDVAVYYCKQSFNLRTFGGGTKVEIK
Q: B1 was tested. Which “tumor growth (bioluminescence) compared to isotype control antibody” value (OPM-2-Luc MM cells; 10 mg/kg s.c. weekly for 5 weeks, p<0.0001 on Day 30) did it give?
A: Its value is “significantly inhibited tumor growth”.

Q: And the “median survival” value (OPM-2-Luc MM cells; [3])?
A: The value was “Undefined”.

Q: What about the median survival (OPM-2-Luc MM cells; [4]) of the same molecule?
A: The median survival was “undefined”.

B2: h3G10.A57 VH/h3G10.A11 VL: Fab; VH SEQ ID NO:23, VL A11 (probably A11A, SEQ ID NO:51) (antibody, V domains shown)
VH: B1 VH with E58Y
VL: B1 VL with S26A, H33R, G61E, N99R
modifications: Fab
Q: For B2, which “MFI 0.25 μg/ml” value [1] is on record?
A: The value was 1251.

Q: What about the “MFI 2.5 μg/ml” value [1] of the same molecule?
A: Its value is 4521.

B3: h3G10.A57 VH/h3G10.B12 VL: Fab; VH SEQ ID NO:23, VL B12 (probably B12A, SEQ ID NO:61) (antibody, V domains shown)
VH: B1 VH with E58Y
VL: B1 VL with H33R, A40L, G61E, N99R
modifications: Fab
Q: Which results are given for B3?
A: MFI 0.25 μg/ml [1]: 2921; MFI 2.5 μg/ml [1]: 6830

B4: h3G10.B44 VH/h3G10.2.72 VL: Fab; VH SEQ ID NO:25, VL SEQ ID NO:49 (antibody, V domains shown)
VH: B1 VH with G49S, E58Y, D76N, S80T, K89R, T90A, R100K
VL: B1 VL with H33R, G61E, N99R
modifications: Fab
Q: With B4 as the molecule, how does the “MFI 0.25 μg/ml” value [1] read?
A: Its value is 4513.

Q: And the “MFI 2.5 μg/ml” value [1]?
A: Its value is 8908.

B5: h3G10.B44 VH/h3G10.A11 VL: Fab; VH SEQ ID NO:25, VL A11 (probably A11A, SEQ ID NO:51) (antibody, V domains shown)
VH: B1 VH with G49S, E58Y, D76N, S80T, K89R, T90A, R100K
VL: B1 VL with S26A, H33R, G61E, N99R
modifications: Fab
Q: For B5, which “MFI 0.25 μg/ml” value [1] is on record?
A: Its value is 3792.

Q: And the “MFI 2.5 μg/ml” value [1]?
A: The value was 8306.

B6: h3G10.B44 VH/h3G10.B12 VL: Fab; VH SEQ ID NO:25, VL B12 (probably B12A, SEQ ID NO:61) (antibody, V domains shown)
VH: B1 VH with G49S, E58Y, D76N, S80T, K89R, T90A, R100K
VL: B1 VL with H33R, A40L, G61E, N99R
Q: B6 was tested. Which “MFI 0.25 μg/ml” value [1] did it give?
A: The value was 2094.

Q: And the “MFI 2.5 μg/ml” value [1]?
A: Its value is 8127.

B7: h3G10.A57 VH/h3G10.2.72 VL: Fab; VH SEQ ID NO:23, VL SEQ ID NO:49 (antibody, V domains shown)
VH: B1 VH with E58Y
VL: B1 VL with H33R, G61E, N99R
modifications: Fab
Q: For B7, which “Ka (1/MS)” value [2] is on record?
A: The value was 1.10E+06 1/MS.

Q: What about the “Kd” value [2] of the same molecule?
A: Its value is 0.0013 s⁻¹.
